Substitutions are numbered along the chain they refer to.
B1: chimeric-VH + VL of clone 20-2-40-2 (98G2E9) (antibody, V domains shown)
VH: EVLLVESGGGLVKPGGSLKLSCAASGFTFSGYAMSWVRQTPEKRLEWVATITSGGSYTYYPDSVKGRFTISRDNAKNTLYLQMSSLRSEDTAMYYCARKDYGNYWFAYWGQGTLVTVSA
VL: DVVMTQTPLSLPVSLGDQASISCRSSQSLVHSDGNTYLHWYLQKPGQSPKLLIYKVSNRFSGVPDRFSGSGSGTDFTLKISRVEAEDLGVYFCSQTTQVPWTFGGGTKLEIK
notes: also called clone #40-2
B2: 20-2-25 (antibody, V domains shown)
VH: EVQLQQSGAELVRPGALVKLSCKASGFNIKDYYMHWVKQRPEQGLEWIGWIDPENGNTIYDPKFQGKASITADTSSNTAYLQLSSLTSEDTAVYYCARGYLVYWGQGTLVTVSA
VL: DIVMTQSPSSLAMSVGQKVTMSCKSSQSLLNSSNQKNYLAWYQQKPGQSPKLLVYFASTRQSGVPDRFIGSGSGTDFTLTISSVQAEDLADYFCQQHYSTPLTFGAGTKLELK
notes: the antibody in the subclone supernatant, not the CAR m26; also called 70B6F6H11
B3: 20-2-10 (antibody, V domains shown)
VH: B2 VH with E10D, M34L, V102T
VL: DIVMTQSPSSLAMSVGQKVTMNCKSSQNLLNSSNQKNYLAWFQQKPGQSPKLLVYFASTRYSGVPDRFMGSGSGTDFTLTVSSVQAEDLADYFCQQHYSTPLTFGAGTKLELK
notes: also called 75H11B1
B4: 20-2-16 (antibody, V domains shown)
VH: B2 VH with S69T
VL: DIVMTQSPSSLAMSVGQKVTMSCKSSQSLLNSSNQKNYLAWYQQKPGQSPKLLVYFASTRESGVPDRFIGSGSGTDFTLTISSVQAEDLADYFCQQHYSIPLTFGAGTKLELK
notes: also called 90H3D2
B5: 20-2-19 (antibody, V domains shown)
VH: B2 VH with V102A
VL: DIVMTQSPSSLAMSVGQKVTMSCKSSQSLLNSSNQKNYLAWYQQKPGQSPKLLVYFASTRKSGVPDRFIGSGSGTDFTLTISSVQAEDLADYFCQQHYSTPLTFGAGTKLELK
notes: also called 53H2H7 (recombinantly expressed)
B6: 20-2-22 (antibody, V domains shown)
VH: B2 VH with Y80C, Y100W, L101F, V102A
VL: B3 VL with V3L, N22S, N28S, Y38H, F42Y, Y61Q, M69I, V81I
notes: also called 57D8C3
B7: 20-2-31 (antibody, V domains shown)
VH: B2 VH
VL: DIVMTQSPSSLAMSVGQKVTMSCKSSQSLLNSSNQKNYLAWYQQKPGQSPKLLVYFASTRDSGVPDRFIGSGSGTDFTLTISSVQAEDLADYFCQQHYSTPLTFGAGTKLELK
notes: also called 95G10G8E4
B8: 20-2-34 (antibody, V domains shown)
VH: B2 VH
VL: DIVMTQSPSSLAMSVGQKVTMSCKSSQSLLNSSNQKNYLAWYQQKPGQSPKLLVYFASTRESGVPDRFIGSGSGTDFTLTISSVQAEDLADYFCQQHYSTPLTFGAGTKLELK
notes: the antibody in the subclone supernatant, not the CAR m28; also called 84G9F9
B9: 20-2-49 (antibody, V domains shown)
VH: QVQLQQSGAELAKPGASVKMSCKASAYTFTTYWMHWVKQRPGQGLEWIGYINPNTAYTEYNQNFKDKATLTADKSSSTAYMQLGSLTSEDSAVYYCARGAYYRTYYAMDYWGQGTSVTVSS
VL: DIVLTQSPASLAVSLGQRATISCKASQSVDYDGDSYMNWYQQKPGQPPKLLIYAASNLESGIPARFSGSGSGTDFTLNIHPVEEEDAATYYCLQSNEDPYTFGGGTRLEIN
notes: also called 121E9D12
B10: 20-2-52 (antibody, V domains shown)
VH: QIQLVQSGPELKKPGETVKISCKASGYTFINYGMNWVKQTPGKGLKWMGWINTYTGEPTYADDFKGRFAFSLETSASTAYLQINNLKNEDMATYFCSREEFYSRGAMDYWGQGTSVTVSS
VL: DVLMTQTPLSLPVSLGDQASISCRSSQFIVHSNGNTYLEWYLQKPGQSPKLLIYKISNRFSGVPDRFSGSGSGTDFTLKISRVEAEDLGVYYCFQGSHVPFTFGSGTKLEIK
notes: also called 124A5F2
B11: 20-2-55 (antibody, V domains shown)
VH: QIQLQQSGPELVKPGASVKISCKASGYSFTDYYINWVKQKPGQGLEWIGWIYPGSGNTKYNEKFKGKATLTVDTSSSTAYMQLNSLTSEDTAVYFCARSSRCDFWGQGTTLTVSS
VL: DIQMTQSASSFSVSLGDSVTITCKASEDIYNRLAWYQQKPGNTPRLLISGATSLETGVPSRFSGSGSGKDYTLSITSLQTEDVATYYCQQYWSSPLTFGSGTKLELK
notes: also called 136C11E7
B12: 20-2-7 (antibody, V domains shown)
VH: QIQLVQSGPELKKPGETVKISCKASGYTFTDYSIHWVKQAPGKGLKWMGWINTETGEPTYADDFKGRFAFSLETSASTAYLQINNLKNEDTATYFCSNYGYDVRGDYWGQGTTLTVSS
VL: EIVLTQSPTTMAASPGENITITCSASSGISSNYLHWYQQKPGFSPELLIYSTSNLASGVPARFSGSGSGTSYSLTIGTMEAEDVATYYCHQGSDIPLTFGAGTRLELK
notes: also called 89C2A11
B13: 20-2-13 (antibody, V domains shown)
VH: QVQLQQPGAELVKPGASVKLSCKASGYSFTRYWMHWVKQRPGQGLEWIGEINPSNGRANYNEKFMSKATLTVDKSSSTAYMQLSSLTSEDSAVYYCARGREITTGFAYWGQGTLVTVSA
VL: SIVMTQTPKFLLVSAGDRVTITCKASQSVSNDVVWYQQKPGQSPKLLIYYASNRYTGVPDRFTGSGYGTDFTFTITTVQAEDLAVYFCQQDYSSPWTFGGGTKLEIK
notes: also called 90F6C1
B14: murine antibody 20-2-4 (clone 88A3C8) (antibody, V domains shown)
VH: B2 VH with Y100W, L101F, V102A
VL: B3 VL with V3L, N22S, N28S, Y38H, F42Y, Y61A, M69I, V81I
notes: Murine monoclonal antibody purified from the subclone supernatant; also called clone #4
B15: murine antibody 20-2-28 (clone 84C3G8H7) (antibody, V domains shown)
VH: B2 VH with Y100W, L101F, V102A
VL: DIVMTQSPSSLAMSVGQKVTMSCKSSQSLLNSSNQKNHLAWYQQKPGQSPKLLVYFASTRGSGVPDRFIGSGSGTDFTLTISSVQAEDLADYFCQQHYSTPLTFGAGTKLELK
notes: Murine monoclonal antibody purified from the subclone supernatant; also called clone #28
B16: murine antibody 20-2-1 (clone 83F7B2) (antibody, V domains shown)
VH: B12 VH with Y32F, I34M, T59S, S97A
VL: B12 VL with N18K, G28S, E46K, S51G, D94S, R104K
notes: Murine monoclonal antibody purified from the subclone supernatant
B17: 20-2-37 (antibody, V domains shown)
VH: B1 VH with L3M, G26R, G31N
VL: B1 VL with T96S, T97I, Q98H
notes: also called 98B10B12
B18: 20-2-43 (antibody, V domains shown)
VH: DVQLQESGPDLVKPSQSLSLNCTVTGYSITSGYSWHWIRQFPGNKLEWMGYIHYSGSTNYNPPLKSRIFIARDTSKNQFFLQLTSVTTEDTATYYCARGVVSNYAMGNWGQGTSVTVSS
VL: ETTVTQSPASLSMAIGEKVTIRCITNTDIDDDMNWYQQKPGEPPKLLISEGNTLRPGVPSRFSSSGYGTDFVFTIENMLSEDVADYYCLQSDDLPLTFGSGTKLEIK
notes: also called 115A10H4

molecular target: T1, EGFRvIII target antigen (SPR ligand) (UniProt P00533 25-645, limits assumed); assay: SPR; antibody as analyte
T1 construct: also called EGFRvIII antigen

Kd [nM] | koff [s⁻¹] | kon [M⁻¹ s⁻¹] | Binder
49.9 | 0.00181 | 36200 | B1

molecular target: T2, EGFRvIII overexpressed on target cells (UniProt P00533 25-1210); assay: flow cytometry of the subclone supernatant on F98npEGFRvIII cells (Geom mean)
T2 construct: whole, on cells; Same protein on two cell lines: F98npEGFRvIII for flow cytometry, U87MG-EGFRvIII for the killing assays; also called F98npEGFRvIII; U87MG-EGFRvIII

binding result | Binder
binds | B2
binds | B3
binds | B4
binds | B5
binds | B6
binds | B7
binds | B8
binds | B9
binds | B10
binds | B11
binds | B12
binds | B13

molecular target: T1, EGFRvIII target antigen (SPR ligand); assay: SPR; EGFRvIII as ligand, antibody as analyte

koff [s⁻¹] | Kd [nM] | kon [M⁻¹ s⁻¹] | Binder
0.00864 | – | – | B14
0.0165 | – | – | B15
0.00119 | 23.7 | 50100 | B16

molecular target: T3, EGFR (wild type) expressed on target cells (UniProt P00533 25-1210, limits assumed); assay: flow cytometry of the subclone supernatant on F98npEGFR cells (Geom mean)
T3 construct: whole, on cells; also called F98npEGFR; U87MG-EGFR

binding result | Binder
no binding | B2
no binding | B3
no binding | B4
no binding | B5
no binding | B6
no binding | B7
no binding | B8
no binding | B14
no binding | B15
no binding | B9
no binding | B10
no binding | B11
no binding | B16
no binding | B12
no binding | B13
no binding | B17
no binding | B18

From patent publication US20260108607A1 (BEIJING DCTY BIOTECH, published 2026)
